Target: complement protein C1q (human) (UniProt P02745)
Assay: cell-based or functional assay

Sequence of UniProt P02745 (P02745 23-245 limits assumed, chain 1 of 3): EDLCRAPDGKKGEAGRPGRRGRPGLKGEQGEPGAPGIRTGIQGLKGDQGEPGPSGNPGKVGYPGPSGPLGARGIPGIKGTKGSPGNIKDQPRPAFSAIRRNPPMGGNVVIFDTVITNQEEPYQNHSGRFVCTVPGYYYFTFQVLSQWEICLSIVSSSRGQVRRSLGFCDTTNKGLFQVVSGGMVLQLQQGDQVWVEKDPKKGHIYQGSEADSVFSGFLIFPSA
Sequence of UniProt P02745 (P02746 28-253 limits assumed, chain 2 of 3, further chain): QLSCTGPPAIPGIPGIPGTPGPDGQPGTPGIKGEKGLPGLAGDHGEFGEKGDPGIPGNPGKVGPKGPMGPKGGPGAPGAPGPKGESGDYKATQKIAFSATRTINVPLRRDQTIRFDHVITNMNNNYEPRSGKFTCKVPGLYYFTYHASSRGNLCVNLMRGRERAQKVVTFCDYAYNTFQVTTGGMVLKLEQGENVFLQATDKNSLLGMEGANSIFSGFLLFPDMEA
Sequence of UniProt P02745 (P02747 29-245 limits assumed, chain 3 of 3, further chain): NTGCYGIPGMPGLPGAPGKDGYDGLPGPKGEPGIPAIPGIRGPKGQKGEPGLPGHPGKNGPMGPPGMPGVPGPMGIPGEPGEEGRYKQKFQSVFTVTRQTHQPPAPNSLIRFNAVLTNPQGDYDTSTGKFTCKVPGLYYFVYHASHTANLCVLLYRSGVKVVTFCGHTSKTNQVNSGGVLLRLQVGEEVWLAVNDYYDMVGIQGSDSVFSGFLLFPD

Substance | average fold-increase in the EC50 value compared with wild-type Hu1D10-IgG1 antibody (CDC) | average fold-increase in the maximum percent lysis (CDC) | fold-increase in the EC50 value compared with wild-type Hu1D10-IgG1 antibody (CDC) | fold-increase in the maximum percent lysis (CDC)
Hu1D10-IgG1 double mutant S324N/I332F (antibody) | 13 to 16 fold | 1.3 to 1.4 fold |  | 
Hu1D10-IgG1 double mutant S324N/I332M (antibody) | 13 to 16 fold | 1.3 to 1.4 fold |  | 
Hu1D10-IgG1 double mutant S324W/I332F (antibody) | 13 to 16 fold | 1.3 to 1.4 fold |  | 
Hu1D10-IgG1 double mutant S324W/I332M (antibody) | 13 to 16 fold | 1.3 to 1.4 fold |  | 
Hu1D10-IgG1 single mutant I332F (antibody) |  |  | 2.5 fold | 1.2 to 1.4 fold
Hu1D10-IgG1 single mutant I332G (antibody) |  |  | 1.5 fold | 1.2 to 1.4 fold
Hu1D10-IgG1 single mutant I332M (antibody) |  |  | 2.5 fold | 1.2 to 1.4 fold
Hu1D10-IgG1 single mutant S324M (antibody) |  |  | 2 fold | 
Hu1D10-IgG1 single mutant S324Y (antibody) |  |  | 2 fold | 

— patent US20160137732A1
